Laboratory results as given in patent US20120148571A1 (Ablynx, published 2012).

Target: T1, human serum albumin (human, UniProt P02768 25-609)
T1 construct: also called HSA; humans serum albumin
Assay: SPR (Biacore), human serum albumin immobilized on CM5 chip, periplasmic Nanobody preparation injected in running buffer of pH 5, pH 6, pH 7 or HBS-EP+
Method: Human serum albumin is immobilized on a CM5 sensor chip surface via amine coupling using NHS/EDC for activation and ethanolamine for deactivation (Biacore amine coupling kit)
Approximately 1000 RU of cynomolgus and humans serum albumin respectively is immobilized. Experiments are performed at 25° C. […] This mixture is brought to pH7, pH6 and pH5 by adding HCl or NaOH (dependent on the pH of the mixture measured). Standard buffer HBS-EP+Periplasmic extracts or purified Nanobodies are diluted in running buffers of pH7, pH6 and pH5. The samples are injected for 1 min at a flow rate of 45 ul/min over the activated and reference surfaces. Those surfaces are regenerated with a 3 s pulse of glycine-HCl pH1.5+0.1% P20. Evaluation is done using Biacore T100 evaluation software.

binding result: binds
B1: Nanobody 4A1 (VHH)
VHH: EVQLVESGGGLVQPEGSLRLSCRASGSIFSINTMGWYRQPPGKEREFVARIYPGITHYADSVKGRFTISRDNAKNTVYLQMNSLKPEDTAVYYCFYYYDDRNYWGEGTLVTVSS
notes: Injected as a periplasmic preparation of soluble Nanobody
